From patent publication US20260227398A1, “CD62L (L-SELECTIN) APTAMER AND ITS APPLICATION FOR T CELL ISOLATION” (University of Washington, published 2026)

Columns and labels:
[1] = target: human CD62L/L-selectin expressed on J.RT3-T3.5 cells (human) (UniProt P14151); test: flow cytometry, 50 nM antibody on J.RT3-T3.5 cells 48 hours after electroporation with SELL siRNA
L-selectin (CD62L, SELL) [2] = target: T1, L-selectin (CD62L, SELL) (Homo sapiens, UniProt P14151 P14151:39-332); test: BLI; +/-0.203; 1:1 fit poor (R2 0.9029); aptamer immobilised; DPBS Ca/Mg + 5 mM MgCl2, 1% BSA, tRNA, salmon sperm DNA, Tween-20; details: tags: recombinant human CD62L, R&D Systems; label: 5' 6-FAM, Cy5 or biotin (hexaethylene glycol spacer)
T1 sequence: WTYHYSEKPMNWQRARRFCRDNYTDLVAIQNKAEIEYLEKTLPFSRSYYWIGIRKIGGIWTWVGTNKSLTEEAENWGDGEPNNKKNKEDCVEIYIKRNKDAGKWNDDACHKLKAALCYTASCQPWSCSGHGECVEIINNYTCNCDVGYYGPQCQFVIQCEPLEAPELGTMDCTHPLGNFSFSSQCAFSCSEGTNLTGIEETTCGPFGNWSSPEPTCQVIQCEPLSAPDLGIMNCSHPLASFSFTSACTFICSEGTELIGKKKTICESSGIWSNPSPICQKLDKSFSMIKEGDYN
Procedure: Prior to running, Octet streptavidin (SA) biosensors (Sartorius of Göttingen, Germany) were pre-soaked in 200 μL diluent (WB supplemented with 1% BSA, 0.1 mg/mL yeast tRNA, 0.1 mg/mL salmon sperm DNA and 0.01% Tween-20). For BLI, the SA biosensors were first rinsed in 200 μL diluent for 100 sec to establish the first baseline. The rinsed sensors were transferred to wells containing 50 nM biotinylated aptamers in 200 μL diluent for aptamer immobilization onto the SA biosensors until a threshold of 0.5 nm is reached. Next, aptamer-immobilized SA biosensors were rinsed in 200 μL diluent for 100 sec to remove excess aptamers and for an additional 100 sec in 200 μL diluent to establish the second baseline. […]
To further validate A1 binding to CD62L, the expression of CD62L was knocked down in J.RT3-T3.5 cells with siRNA duplexes targeting the SELL gene, which encodes CD62L, and compared aptamer and antibody binding to J.RT3-T3.5 cells transfected with the SELL siRNA versus a control siRNA. […] The protein was serially diluted, and the association and dissociation kinetics of biotinylated CD62LApt.88 immobilized on streptavidin tips was measured. The dissociation constants (KD) were calculated by performing a global fit on the curves using a 1:1 model.

[3] = target: T2, L-selectin (CD62L) on primary CD4+ T cells (Homo sapiens, UniProt P14151 P14151:39-372); test: flow; apparent KD +/-0.086; CD4+ T cells cultured in RPMI + 10% FBS; details: tags: endogenous, label: 5' 6-FAM, Cy5 or biotin (hexaethylene glycol spacer)
T2 sequence: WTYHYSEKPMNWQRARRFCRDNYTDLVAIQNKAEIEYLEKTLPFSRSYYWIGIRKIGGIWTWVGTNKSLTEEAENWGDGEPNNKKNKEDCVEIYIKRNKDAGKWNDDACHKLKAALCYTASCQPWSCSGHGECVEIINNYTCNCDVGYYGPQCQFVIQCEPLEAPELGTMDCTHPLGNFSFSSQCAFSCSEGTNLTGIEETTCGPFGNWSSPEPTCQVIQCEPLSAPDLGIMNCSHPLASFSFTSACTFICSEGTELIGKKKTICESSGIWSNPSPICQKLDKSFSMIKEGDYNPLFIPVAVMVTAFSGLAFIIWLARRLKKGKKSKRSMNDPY

[4] = target: T2, L-selectin (CD62L) on primary CD4+ T …; test: flow; apparent KD +/-0.033; cryopreserved CD4+ T cells used right after thaw; DPBS Ca/Mg + 5 mM MgCl2, 4 C; details: tags: endogenous, label: 5' 6-FAM, Cy5 or biotin (hexaethylene glycol spacer)
[5] = target: T3, L-selectin (CD62L) on J.RT3-T3.5 cells (Homo sapiens, UniProt P14151 P14151:39-372); test: flow; stated as sub-nanomolar affinity; details: tags: endogenous, J.RT3-T3.5 human T-ALL line; label: 5' 6-FAM, Cy5 or biotin (hexaethylene glycol spacer)
T3 sequence: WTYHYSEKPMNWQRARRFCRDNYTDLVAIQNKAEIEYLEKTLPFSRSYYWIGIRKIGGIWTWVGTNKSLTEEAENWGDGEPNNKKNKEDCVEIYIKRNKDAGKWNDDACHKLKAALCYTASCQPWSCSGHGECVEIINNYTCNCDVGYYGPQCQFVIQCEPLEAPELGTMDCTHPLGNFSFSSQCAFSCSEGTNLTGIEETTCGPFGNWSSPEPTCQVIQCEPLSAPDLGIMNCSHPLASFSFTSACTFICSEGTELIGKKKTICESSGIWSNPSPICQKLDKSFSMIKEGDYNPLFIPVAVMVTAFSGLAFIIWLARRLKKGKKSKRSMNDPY

[6] = target: T3, L-selectin (CD62L) on J.RT3-T3.5 cells; test: flow; DPBS Ca/Mg + 5 mM MgCl2, 25 mM glucose, BSA, 4 C; details: tags: endogenous, J.RT3-T3.5 human T-ALL line; label: 5' 6-FAM or biotin (hexaethylene glycol spacer)
P-selectin (CD62P, SELP) = P-selectin (CD62P, SELP) (Homo sapiens, UniProt P16109 P16109:42-771); test: BLI; no noticeable binding up to 1000 nM CD62P; details: tags: recombinant human CD62P, ACROBiosystems; label: 5' 6-FAM or biotin (hexaethylene glycol spacer)
Procedure: (§1) Prior to running, Octet streptavidin (SA) biosensors (Sartorius of Göttingen, Germany) were pre-soaked in 200 μL diluent (WB supplemented with 1% BSA, 0.1 mg/mL yeast tRNA, 0.1 mg/mL salmon sperm DNA and 0.01% Tween-20). For BLI, the SA biosensors were first rinsed in 200 μL diluent for 100 sec to establish the first baseline. The rinsed sensors were transferred to wells containing 50 nM biotinylated aptamers in 200 μL diluent for aptamer immobilization onto the SA biosensors until a threshold of 0.5 nm is reached. Next, aptamer-immobilized SA biosensors were rinsed in 200 μL diluent for 100 sec to remove excess aptamers and for an additional 100 sec in 200 μL diluent to establish the second baseline. The sensors were then transferred to wells containing different concentrations of L-selectin in 200 μL diluent to allow aptamer association with CD62L (R&D Systems of Minneapolis, Minnesota), CD62P (ACROBiosystems of Newark, Delaware), or CD62E (ACROBiosystems). Finally, the sensors were transferred to wells containing 200 μL diluent to allow dissociation. […]
(§2) The binding affinity and kinetics of CD62LApt.52 to JRT.3-T3.5 cells and to recombinant human CD62L protein was characterized by flow cytometry and BLI, respectively. […] However, no noticeable binding of CD62LApt.52 to either CD62E or CD62P at up to 1000 nM was detected by BLI (FIGS. 15A, 15B).

E-selectin (CD62E, SELE) = target: T4, E-selectin (CD62E, SELE) (Homo sapiens, UniProt P16581 P16581:22-556); test: BLI; no noticeable binding up to 1000 nM CD62E; details: tags: recombinant human CD62E, ACROBiosystems; label: 5' 6-FAM or biotin (hexaethylene glycol spacer)
T4 sequence: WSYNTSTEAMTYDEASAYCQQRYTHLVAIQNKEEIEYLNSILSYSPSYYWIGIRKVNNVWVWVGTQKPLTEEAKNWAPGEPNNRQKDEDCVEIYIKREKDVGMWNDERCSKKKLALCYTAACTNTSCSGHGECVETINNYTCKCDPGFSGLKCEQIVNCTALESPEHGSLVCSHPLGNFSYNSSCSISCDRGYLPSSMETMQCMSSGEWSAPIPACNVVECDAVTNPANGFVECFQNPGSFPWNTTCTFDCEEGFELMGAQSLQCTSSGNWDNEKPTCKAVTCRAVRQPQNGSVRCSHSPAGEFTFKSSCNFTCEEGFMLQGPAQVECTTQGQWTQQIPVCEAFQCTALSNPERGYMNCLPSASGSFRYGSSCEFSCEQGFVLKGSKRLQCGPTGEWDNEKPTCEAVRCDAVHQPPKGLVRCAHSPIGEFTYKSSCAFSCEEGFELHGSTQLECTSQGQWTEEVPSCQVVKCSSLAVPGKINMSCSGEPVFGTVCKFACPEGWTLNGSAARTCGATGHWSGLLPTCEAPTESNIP
Procedure: as §1, §2

L-selectin (CD62L, SELL) [7] = target: T1, L-selectin (CD62L, SELL); test: BLI; +/-0.045; R2 0.9959; aptamer immobilised; details: tags: recombinant human CD62L, R&D Systems; label: 5' 6-FAM or biotin (hexaethylene glycol spacer)
Procedure: as §1, §2

L-selectin (CD62L, SELL) [8] = target: T1, L-selectin (CD62L, SELL); test: BLI; +/-0.125; R2 0.9898; aptamer immobilised; details: tags: recombinant human CD62L, R&D Systems; label: 5' biotin
Procedure: Prior to running, Octet streptavidin (SA) biosensors (Sartorius of Göttingen, Germany) were pre-soaked in 200 μL diluent (WB supplemented with 1% BSA, 0.1 mg/mL yeast tRNA, 0.1 mg/mL salmon sperm DNA and 0.01% Tween-20). For BLI, the SA biosensors were first rinsed in 200 μL diluent for 100 sec to establish the first baseline. The rinsed sensors were transferred to wells containing 50 nM biotinylated aptamers in 200 μL diluent for aptamer immobilization onto the SA biosensors until a threshold of 0.5 nm is reached. Next, aptamer-immobilized SA biosensors were rinsed in 200 μL diluent for 100 sec to remove excess aptamers and for an additional 100 sec in 200 μL diluent to establish the second baseline. The sensors were then transferred to wells containing different concentrations of L-selectin in 200 μL diluent to allow aptamer association with CD62L (R&D Systems of Minneapolis, Minnesota), CD62P (ACROBiosystems of Newark, Delaware), or CD62E (ACROBiosystems). Finally, the sensors were transferred to wells containing 200 μL diluent to allow dissociation. The association and dissociation durations are indicated on the BLI curves.

P-selectin (CD62P, SELP), sequence (P16109 42-771, one chain of several): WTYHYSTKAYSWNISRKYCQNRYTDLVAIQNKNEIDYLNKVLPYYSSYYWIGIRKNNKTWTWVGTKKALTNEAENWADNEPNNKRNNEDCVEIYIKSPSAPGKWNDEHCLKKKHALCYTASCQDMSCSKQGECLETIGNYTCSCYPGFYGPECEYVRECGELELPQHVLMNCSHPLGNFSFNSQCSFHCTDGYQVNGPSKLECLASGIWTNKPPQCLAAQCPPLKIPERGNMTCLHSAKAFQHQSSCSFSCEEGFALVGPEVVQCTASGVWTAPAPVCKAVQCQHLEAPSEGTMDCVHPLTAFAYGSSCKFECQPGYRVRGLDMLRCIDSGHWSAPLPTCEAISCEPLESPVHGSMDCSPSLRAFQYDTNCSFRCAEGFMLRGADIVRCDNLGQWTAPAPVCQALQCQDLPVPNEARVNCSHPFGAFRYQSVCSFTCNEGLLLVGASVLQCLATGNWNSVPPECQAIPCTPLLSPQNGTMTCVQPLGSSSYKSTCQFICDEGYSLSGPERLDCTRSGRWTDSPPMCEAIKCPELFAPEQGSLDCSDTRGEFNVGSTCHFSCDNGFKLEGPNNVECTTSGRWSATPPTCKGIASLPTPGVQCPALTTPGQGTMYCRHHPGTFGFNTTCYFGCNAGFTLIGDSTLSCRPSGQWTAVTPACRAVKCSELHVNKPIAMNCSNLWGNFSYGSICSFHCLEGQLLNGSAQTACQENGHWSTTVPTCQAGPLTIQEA

“Alexa Fluor 488 anti-human CD62L monoclonal antibody, clone DREG-56 (BioLegend)” was tested, and the relative antibody binding after CD62L siRNA knockdown (vs control siRNA) [1] was 17%.

B1: CD62LApt.88 (A1, L-SA.88) (ssDNA)
DNA: ATCCAGAGTGACGCAGCATAGTCAAGGCGATAGACGAAAAACATTGTTTTCCTGGAAGGCCCAGAATCTGTGGACACGGTGGCTTAGT
In the case of B1, the Kd (L-selectin (CD62L, SELL) [2]) is reported as 4.91 nM, the Kd [3] is reported as 0.31 nM and the Kd [4] is reported as 0.04 nM. For the same molecule, the Kd [5] was < 1 nM.

B2: CD62LApt.52 (ssDNA)
DNA: TAGTCAAGGCGATAGACGAAAAACATTGTTTTCCTGGAAGGCCCAGAATCTG
For B2, the Kd [6] was 0.19 nM, the binding result (P-selectin (CD62P, SELP)) was “no binding” and the binding result (E-selectin (CD62E, SELE)) was “no binding”. For the same molecule, the Kd (L-selectin (CD62L, SELL) [7]) was 5.3 nM.

B3: CD62LApt.61 (ssDNA)
DNA: AGACCCGACGCAGCATAGTCAAGGCGATAGACGAAAAACATTGTTTTCCTGGAAGGCCCAGAATCTGCG
Work on B3 yielded a Kd (L-selectin (CD62L, SELL) [8]) of 5.81 nM.
